Columns and labels:
[1] = target: T1, mutated human CRTH2 with amino acid substitution (Homo sapiens, UniProt Q9Y5Y4, N185A/Y183A/Y184A); assay: Epitope analysis using CHO-S cells which express mutated human CRTH2 with amino acid substitution; type: binding; settings: mutant Y183A, Y184A, and N185A; antibody 10 μg/mL; relative to wild-type = 100%
T1 construct: inserting genes encoding various mutants with amino acid substitution obtained by deleting termination codons; expressed in transfected cells; host or cells: CHO-S cells (Lifetechnologies), transient (phmAG1-MNLinker vector)
T1 sequence (Q9Y5Y4 1-395 Y183A/Y184A/N185A): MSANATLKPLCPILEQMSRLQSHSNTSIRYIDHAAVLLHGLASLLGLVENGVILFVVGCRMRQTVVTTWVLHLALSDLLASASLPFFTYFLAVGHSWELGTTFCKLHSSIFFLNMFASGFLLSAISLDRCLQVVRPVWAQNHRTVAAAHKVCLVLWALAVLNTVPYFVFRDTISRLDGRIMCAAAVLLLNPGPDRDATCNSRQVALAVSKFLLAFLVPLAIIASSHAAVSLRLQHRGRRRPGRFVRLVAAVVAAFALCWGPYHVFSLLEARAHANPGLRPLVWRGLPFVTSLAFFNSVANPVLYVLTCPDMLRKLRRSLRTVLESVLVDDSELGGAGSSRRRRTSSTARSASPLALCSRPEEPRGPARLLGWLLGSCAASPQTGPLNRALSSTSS
Experimental: (§1) A mutant with amino acid substitution expression vector obtained by partially substituting amino acid residues in an extracellular region with other amino acid residues among the amino acid sequences of human CRTH2 was prepared. Specifically, mutant with amino acid substitution expression vectors obtained by substitution of S2A; N4A; T6A and L7A; K8A, P9A, and L10A; P12A, L14A, and EISA; Q16E, R19H, and Q21R; H23A, S24A, and N25A; T26A, S27A, and I28A; D171A, T172A, and I173A; S174A, R175A, and L176A; D177A, G178A, and R179A; 1180A and M181A; Y183A, Y184A, and N185A; L187A, L188A, and L189A; N190A; P191A; G192A; P193A; D194A; R195A; D196A, and T198A; N275A, G277A, and L278A; P276A; P279A and L281A; P280A; or V282A, R283A, and R284A in the amino acid sequences represented by SEQ ID NO: 2 were respectively prepared. It should be noted that the above symbols in the amino acid substitution indicate [single letter code of an amino acid residue before substitution] [substitution position counting from the N terminal] [single letter code of the amino acid reside after substitution].
(§2) Azami-Green tag was added to the intercellular C terminal region by inserting genes encoding various mutants with amino acid substitution obtained by deleting termination codons to the restriction enzyme sites of BamHI and HindIII using phmAG1-MNLinker (MBL) as expression vectors.
(§3) The above-described vectors expressing mutants with amino acid substitution were prepared using 1) a method of entirely synthesizing gene sequences encoding mutants with amino acid substitution and inserting the gene sequences into a vector or 2) a method of performing site-specific mutation from a vector into which DNA which encodes the amino acid sequences of wild-type human CRTH2 represented by SEQ ID NO: 1 was inserted.
(§4) CHO-S cells (Lifetechnologies) were used for preparing mutated human CRTH2 with amino acid substitution expressing cell lines. Free style CHO expression medium (Invitrogen) containing 8 mM L-Glutamine (Invitrogen) was used for subculturing cells and the cells were cultured by shaking under the conditions of 37° C. in the presence of 5% CO2.
(§5) 25 μg of the mutated human CRTH2 with amino acid substitution expression vector prepared in (1) described above was dissolved in 400 μL of Opti-Pro SFM (Invitrogen) and 25 μL of a Freestyle MAX Reagent (Invitrogen) was dissolved in 400 μL of Opti-Pro SFM and each of them were allowed to stand at room temperature for 5 minutes. The two liquids were mixed with each other and allowed to stand at room temperature for 15 minutes. The mixed solution was added to the CHO-S culture solution and the cells were cultured for 24 hours, thereby obtaining cell lines which express mutated human CRTH2 with amino acid substitution.
(§6) The CHO-S cells which express mutated human CRTH2 with amino acid substitution established in (2) were washed with SM, seeded in a 96-well plate such that one well has 2×10^5 cells, and centrifuged at 1700 rpm for 2 minutes. After the supernatant was removed, chLym2, LV0HV1, the anti-human CRTH2 antibody hu19A2 v52, hu8B1 v1, ch3C12, or ch31A5 prepared in Example 9, or a commercially available anti-human CRTH2 antibody BM16 (Santa Cruz) prepared to have a concentration of 10 μg/mL using SM was added thereto to cause a reaction at 4° C. for 1 hour.
(§7) After the cells were washed, goat anti-Human IgG Alexa 647 (Molecular Probes) diluted with SM was added to wells to which chLym2, LV0HV1, hu19A2 v52, hu8B1 v1, ch3C12, or ch31A5 was added and goat anti-Rat IgG Alexa 647 (Molecular Probes) diluted with SM was added to wells to which BM16 was added at a final concentration of 10 μg/mL to cause a reaction at 4° C. for 1 hour.
(§8) After the reaction, the cells were washed and suspended with SM, and the fluorescent intensity was analyzed by flow cytometry (BD Biosciences, FACS CantoII). […]

[2] = target: T2, mutated human CRTH2 with amino acid substitution (Homo sapiens, UniProt Q9Y5Y4, D177A/G178A/R179A); assay: as above; type: binding; settings: mutant D177A, G178A, and R179A; antibody 10 μg/mL; relative to wild-type = 100%
T2 construct: inserting genes encoding various mutants with amino acid substitution obtained by deleting termination codons; expressed in transfected cells; host or cells: CHO-S cells (Lifetechnologies), transient (phmAG1-MNLinker vector)
T2 sequence (Q9Y5Y4 1-395 D177A/G178A/R179A): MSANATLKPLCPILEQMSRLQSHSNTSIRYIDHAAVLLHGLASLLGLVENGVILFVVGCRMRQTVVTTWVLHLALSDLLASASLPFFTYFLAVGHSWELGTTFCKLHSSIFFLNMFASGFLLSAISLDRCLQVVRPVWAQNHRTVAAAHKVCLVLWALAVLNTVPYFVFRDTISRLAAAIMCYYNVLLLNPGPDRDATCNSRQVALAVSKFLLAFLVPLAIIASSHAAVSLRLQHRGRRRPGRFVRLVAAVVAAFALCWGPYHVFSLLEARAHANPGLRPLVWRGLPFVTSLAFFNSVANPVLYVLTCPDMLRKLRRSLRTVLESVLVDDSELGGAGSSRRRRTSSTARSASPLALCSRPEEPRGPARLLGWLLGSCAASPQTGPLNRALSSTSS
Experimental: as §1, §2, §3, §4, §5, §6, §7, §8

reactivity against cells expressing mutated human CRTH2 [1]: lost
reactivity against cells expressing mutated human CRTH2 [2]: lost
B1: LV0HV1: humanized Lym2 antibody, VL LV0 (SEQ ID NO: 33), VH HV1 (SEQ ID NO: 51) (antibody, V domains shown)
VH: EVQLVESGGGVVQPGRSLRLSCAASGFTFSNYYMAWVRQAPGKGLEWVATISYDGSSTYYRDSVKGRFTISRDNAKNSLYLQMNSLRAEDTATYYCARHRGYYYSGAGYFDYWGQGTMVTVSS
VL: DIVMTQTPLSLPVTPGESASISCRSSQSLEYSDGYTYLEWYLQKPGQSPQVLIYGVSNRFSGVPDRFSGSGSGTDFTLKISRVEAEDVGVYYCFQATHDPLTFGQGTKLEIK

Source: patent US10100120B2, “Antibody which specifically binds to human CRTH2” (KYOWA HAKKO KIRIN CO., LTD, priority 2015, dated 2018)
